Measured values reported in US20100041597A1, “PEPTIDES TARGETED TO PROTEIN KINASE C ISOFORMS AND USES THEREOF” (priority 2005, published 2010).
Values joined by “and” are separate entries in the source; they are usually repeats but may differ in a detail not shown here. Equal entries are not always repeated.

Assays:
[1] = biological target: PKC-βI (endogenous, human cell extracts) (human) (UniProt P05771); assay: Western blot Protocol B, IMR-32 extract, no peptide
[2] = biological target: PKC-ε (endogenous, human cell extracts) (human) (UniProt Q02156); assay: Western blot Protocol B, IMR-32 extract, Band 2, no peptide
[3] = biological target: PKC-ε (endogenous, human cell extracts) (human) (UniProt Q02156); assay: Western blot Protocol B, IMR-32 extract, Band 1, no peptide
[4] = biological target: PKC-βII (endogenous, human cell extracts) (human) (UniProt P05771); assay: Western blot Protocol B, IMR-32 extract, no peptide
PKC-βII (endogenous, human cell extracts) (human), sequence (P05771 other isoform, or with tags, fused parts or gaps limits assumed): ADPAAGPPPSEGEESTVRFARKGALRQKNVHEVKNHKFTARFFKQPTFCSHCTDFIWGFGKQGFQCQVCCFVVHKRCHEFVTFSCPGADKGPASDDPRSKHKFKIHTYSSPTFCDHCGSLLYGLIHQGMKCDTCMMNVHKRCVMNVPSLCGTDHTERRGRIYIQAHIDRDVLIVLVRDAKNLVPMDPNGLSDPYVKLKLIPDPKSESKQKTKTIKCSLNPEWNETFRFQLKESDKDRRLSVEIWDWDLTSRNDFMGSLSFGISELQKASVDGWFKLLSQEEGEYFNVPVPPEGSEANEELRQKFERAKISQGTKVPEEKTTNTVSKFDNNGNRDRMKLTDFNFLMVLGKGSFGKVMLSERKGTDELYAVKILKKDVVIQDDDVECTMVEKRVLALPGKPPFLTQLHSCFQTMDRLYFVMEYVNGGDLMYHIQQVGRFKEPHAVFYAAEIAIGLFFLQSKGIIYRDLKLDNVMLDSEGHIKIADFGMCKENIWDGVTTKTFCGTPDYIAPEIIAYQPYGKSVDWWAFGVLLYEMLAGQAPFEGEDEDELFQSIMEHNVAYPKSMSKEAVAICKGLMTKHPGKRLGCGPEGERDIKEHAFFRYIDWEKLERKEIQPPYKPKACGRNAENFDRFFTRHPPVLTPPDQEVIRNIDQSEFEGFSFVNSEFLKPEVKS

PKC-ε (endogenous, human cell extracts) (human), sequence (Q02156 whole entry): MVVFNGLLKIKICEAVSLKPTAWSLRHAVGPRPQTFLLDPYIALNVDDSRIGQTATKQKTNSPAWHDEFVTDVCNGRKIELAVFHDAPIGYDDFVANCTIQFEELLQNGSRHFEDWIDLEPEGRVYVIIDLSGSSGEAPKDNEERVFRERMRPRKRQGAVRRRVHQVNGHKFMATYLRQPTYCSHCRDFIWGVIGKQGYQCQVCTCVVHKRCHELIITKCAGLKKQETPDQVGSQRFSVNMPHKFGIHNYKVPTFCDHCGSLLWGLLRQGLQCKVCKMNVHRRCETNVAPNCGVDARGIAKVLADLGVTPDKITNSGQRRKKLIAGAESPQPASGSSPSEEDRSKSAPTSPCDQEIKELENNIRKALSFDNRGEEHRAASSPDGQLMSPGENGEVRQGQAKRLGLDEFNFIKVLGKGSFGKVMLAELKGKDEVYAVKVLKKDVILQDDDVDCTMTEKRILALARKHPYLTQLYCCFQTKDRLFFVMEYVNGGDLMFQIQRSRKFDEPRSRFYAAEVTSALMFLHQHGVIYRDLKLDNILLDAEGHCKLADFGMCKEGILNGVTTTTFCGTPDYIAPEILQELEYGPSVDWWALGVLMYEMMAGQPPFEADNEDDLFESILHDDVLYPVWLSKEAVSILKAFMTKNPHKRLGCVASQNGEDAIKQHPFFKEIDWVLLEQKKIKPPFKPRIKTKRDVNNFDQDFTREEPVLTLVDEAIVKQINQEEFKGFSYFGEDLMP
PKC-βI (endogenous, human cell extracts) (human), sequence (P05771 2-671): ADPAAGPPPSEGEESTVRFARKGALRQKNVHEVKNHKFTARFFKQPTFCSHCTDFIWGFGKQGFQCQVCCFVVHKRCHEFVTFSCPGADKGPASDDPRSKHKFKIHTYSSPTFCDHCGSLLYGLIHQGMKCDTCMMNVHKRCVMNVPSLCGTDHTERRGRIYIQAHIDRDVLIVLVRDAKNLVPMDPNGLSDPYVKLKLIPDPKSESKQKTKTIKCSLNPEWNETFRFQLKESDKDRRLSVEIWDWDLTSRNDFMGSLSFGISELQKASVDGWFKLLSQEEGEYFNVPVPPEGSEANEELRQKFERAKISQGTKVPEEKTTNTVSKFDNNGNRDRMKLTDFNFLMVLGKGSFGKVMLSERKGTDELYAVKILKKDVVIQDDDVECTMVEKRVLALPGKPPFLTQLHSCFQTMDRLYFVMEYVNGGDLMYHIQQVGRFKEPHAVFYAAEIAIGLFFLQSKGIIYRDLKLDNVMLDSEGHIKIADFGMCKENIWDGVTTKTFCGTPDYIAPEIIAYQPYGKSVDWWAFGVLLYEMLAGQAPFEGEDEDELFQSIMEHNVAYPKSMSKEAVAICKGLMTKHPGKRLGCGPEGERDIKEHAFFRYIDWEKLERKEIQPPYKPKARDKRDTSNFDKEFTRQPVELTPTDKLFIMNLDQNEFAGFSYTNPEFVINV

A band intensity [1] of 170 was found for “anti-PKC βI antibody (Cat. No. SC-209, Santa Cruz Biotechnology, Inc.)” in this work.
With “anti-PKC ε antibody (Cat. No. SC-214, Santa Cruz Biotechnology, Inc.)” the band intensity [2] was 261 and 281 and 286 and the band intensity [3] was 421 and 420 and 323.
A band intensity [4] of 98.6 was found for “anti-PKC βII antibody (Cat. No. SC-210, Santa Cruz Biotechnology, Inc.)” in this work.
